{"source": "patent US20220362357A1", "about": "“Synergistic Combinations of Amino Acid Depletion Agent Sensitizers (AADAS) and Amino Acid Depletion Agents (AADA), and Therapeutic Methods of Use Thereof” (STICHTING RADBOUD UNIVERSITAIR MEDISCH CENTRUM, priority 2018, published 2022)", "test_system": "Nalm6, Sem and Reh cells", "test": "ASNase and ibrutinib 7 day treatment of ALL cell lines: SubG1, PARP cleavage, amine staining, colony assay", "assay_type": "cell-based, human", "details": "7 days; 1 IU/ml ASNase, ibrutinib 1 or 10 μM; FIGS. 4D, 4E, 4F & 4H", "experimental": "BTK inhibition. […] Cell viability was then measured by cell cycle distribution, (FIGS. 4C & 4D), and by blotting for the apoptosis marker PARP and calculating the ratio between cleaved and uncleaved PARP protein or (FIG. 4E) by amine staining (FIG. 4F).", "data": [{"molecule": "ASNase: native E. coli ASNase (NCBI WP_000394140.1), used in the in vitro studies (protein, UniProt P00805 23-348, looked up) L-asparaginase 2: LPNITILATGGTIAGGGDSATKSNYTVGKVGVENLVNAVPQLKDIANVKGEQVVNIGSQDMNDNVWLTLAKKINTDCDKTDGFVITHGTDTMEETAYFLDLTVKCDKPVVMVGAMRPSTSMSADGPFNLYNAVVTAADKASANRGVLVVMNDTVLDGRDVTKTNTTDVATFKSVNYGPLGYIHNGKIDYQRTPARKHTSDTPFDVSKLNELPKVGIVYNYANASDLPAKALVDAGYDGIVSAGVGNGNLYKSVFDTLATAAKTGTAVVRSSRVPTGATTQDAEVDDAKYGFVASGTLNPQKARVLLQLALTQTKDPQQIQQIFNQY", "values": [{"measurement": "apoptotic killing efficacy", "value": "relatively small effect"}]}]}
